Results from the supplement of paper PMC9732359.
± gives the uncertainty stated by the source.

Experiment: protein stability index of a GFP-peptide fusion (yeast GPS) (PSI 1-4); higher = more stable; sorted into four equal gates, so the index is relative within each strain
Procedure, shortened: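 Peptides tiling yeast proteins in 17-residue segments were fused downstream of GFP, with Cherry expressed from the same plasmid. As a pooled library in yeast, mid-log cultures grown in leucine-free medium were sorted into four equal gates by GFP/Cherry fluorescence ratio. Gate plasmids were PCR-amplified and Illumina-sequenced, and barcodes linked reads to strains. Each peptide received a protein stability index equal to the sum of each gate's read frequency times its gate number.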

Sequence | protein stability index (doa10∆) | protein stability index (pdr5∆) | protein stability index (san1∆) | protein stability index (ubr1∆)
IVNGTEKVILVQEQLSK [RET1] | 1.54 ± 0.13 | 2.22 ± 0.057 | 1.53 ± 0.11 | 2.29 ± 0.088
PNYLHLVSSYLNKSDLL [YML103C/NUP188] | 1.96 ± 0.038 | 2.27 ± 0.034 | 2.21 ± 0.04 | 1.8 ± 0.031
YDLVILKSGLPLSGLLF [YMR129W/POM152] | 3.61 ± 0.17 | 2.53 ± 0.13 | 3.51 ± 0.049 | 2.11 ± 0.18
NDNDITVKENESDSKLQ [UBP6] | 3.48 ± 0.12 | 3.24 ± 0.096 | 3.15 ± 0.071 | 3.35 ± 0.081
ILNSIPAAANLDALVDC [YJL039C/NUP192] | 2.18 ± 0.074 | 2.72 ± 0.11 | 2.39 ± 0.067 | 2.5 ± 0.12
AAASESDVAKQLASFGY [RPL16B] | 2.67 ± 0.032 | 2.62 ± 0.028 | 2.28 ± 0.037 | 2.356 ± 0.019
LYEIILAANYLNIKPLL [SKP1] | 1.51 ± 0.046 | 1.33 ± 0.045 | 1.28 ± 0.11 | 1.46 ± 0.045
NGIVDQVLVTTNQDGLK [RPB2] | 2.55 ± 0.092 | 2.18 ± 0.1 | 2.61 ± 0.088 | 1.81 ± 0.055
MQRQQQGISGSQQNIVP [SNF2] | 2.91 ± 0.059 | 3.14 ± 0.05 | 3.19 ± 0.046 | 3.01 ± 0.047
PAGMNETPKSNNSLSYH [ITC1] | 2.08 ± 0.14 | 3.22 ± 0.12 | 2.56 ± 0.14 | 3 ± 0.092
MLKRFFPGVKGLVHDLC [SMC1] | – | – | 1.95 ± 0.14 | 2.42 ± 0.17
MIFWNDICQIDTNAPVA [SRB8] | 2.4 ± 0.063 | 1.8 ± 0.052 | 2.12 ± 0.093 | 2.02 ± 0.051
GYSGYGNGITNTTTRVI [SNF5] | 3.64 ± 0.2 | 3.72 ± 0.24 | 2.76 ± 0.18 | –
DKKNSSDPNNQSLNEMV [YJL039C/NUP192] | 3.07 ± 0.1 | 3.24 ± 0.11 | 3.16 ± 0.087 | 3.35 ± 0.071
IKEDIKKQPSILVGGTL [SNF2] | 1.93 ± 0.084 | 2.15 ± 0.12 | 2.92 ± 0.12 | 3.27 ± 0.14
KKTCSSCGYPSAKTRSH [RPL37B] | 2.74 ± 0.066 | 2.51 ± 0.044 | 2.63 ± 0.084 | 1.99 ± 0.04
LLSGEDLTLDDISLKAD [YJL039C/NUP192] | 3.36 ± 0.052 | 3.39 ± 0.065 | 3.44 ± 0.038 | 3.23 ± 0.048
PQNGNINNNINIPQQQQ [GAL11] | 3.32 ± 0.095 | 3.02 ± 0.12 | 3.21 ± 0.082 | 2.97 ± 0.077
RKVVKPSSLNSDKIPYV [SRB4] | 2.74 ± 0.23 | 3.23 ± 0.13 | 3.06 ± 0.18 | 3.23 ± 0.12
KKVKLAVLSYYKVDAEG [RPS31] | 1.62 ± 0.084 | 2.32 ± 0.082 | 2.52 ± 0.074 | 1.95 ± 0.068
MTTVSGRDAFHLRVRVH [RPL10] | 1.33 ± 0.16 | – | – | –
VRIIKHTLDIINVLTDQ [RPS5] | 2.11 ± 0.053 | 2.46 ± 0.059 | 2.62 ± 0.053 | 2.4 ± 0.044
KIIALQPNEISFKYLSN [RGR1] | 2.43 ± 0.12 | 2.38 ± 0.12 | – | 2.48 ± 0.098
GKSTADVKSSDSLKLNS [YJL041W/NSP1] | 3.23 ± 0.14 | 3.35 ± 0.12 | 2.96 ± 0.17 | 3.32 ± 0.14
IPHIFYSLHQIRKDPNN [CSE2] | 2.7 ± 0.11 | 2.61 ± 0.071 | 2.5 ± 0.058 | 2.67 ± 0.042
DTSTQAYEEEEENEDND [NUT1] | 3.24 ± 0.13 | 3.5 ± 0.17 | 3.54 ± 0.18 | 3.39 ± 0.12

Sequence | protein stability index (doa10∆) | protein stability index (pdr5∆) | protein stability index (san1∆) | protein stability index (ubr1∆)
IIDVGTHHTDIIPIVDY [ARP9] | 2.41 ± 0.088 | 2.48 ± 0.056 | 2.5 ± 0.056 | 2.59 ± 0.036
VLLVLPFTDRSVVRGNT [COB] | 3.11 ± 0.14 | 3.31 ± 0.15 | 3.52 ± 0.07 | 3.34 ± 0.15
INAVLVNDNDERAARVV [RPO31] | 2.88 ± 0.12 | 3.04 ± 0.13 | 2.94 ± 0.097 | 2.56 ± 0.084
DEHHESFELKEEDISDL [RRP6] | 3.01 ± 0.072 | 3.23 ± 0.084 | 2.9 ± 0.075 | 3.15 ± 0.059
KKIRFLQLIIFLRTQFL [RGR1] | 1.53 ± 0.057 | 1.27 ± 0.041 | 1.19 ± 0.15 | 1.21 ± 0.073
EILTSVDVLGTHSQTGT [SIR4] | 2.93 ± 0.069 | 2.76 ± 0.063 | 2.87 ± 0.067 | 3.07 ± 0.037
SGDRLTRASKVLEQLSG [RPL11A] | – | 3.12 ± 0.13 | 2.43 ± 0.27 | 2.92 ± 0.13
YKNEDVTALLEQGFKVV [YCS4] | 2.8 ± 0.1 | 3.08 ± 0.1 | 2.93 ± 0.097 | 2.74 ± 0.091
SCGYPAAKTRSYNWGAK [RPL37A] | 2.21 ± 0.29 | 3.34 ± 0.12 | 3.1 ± 0.085 | 3.31 ± 0.12
LKKFLQEKMDPNNSRDD [IRR1] | 3.11 ± 0.081 | 3.12 ± 0.068 | 3.19 ± 0.064 | 3.09 ± 0.07
GLPTDAYVAIEQVKDDG [RPN8] | 2.61 ± 0.076 | 1.92 ± 0.1 | 2.59 ± 0.23 | 2.34 ± 0.08
TSLPDWCQEAFPSSETT [BRR2] | 2.93 ± 0.075 | 3.08 ± 0.099 | 3.25 ± 0.072 | 3.01 ± 0.15
APAYAWSHNGPFETFDH [CYT1] | 2.19 ± 0.098 | 2.64 ± 0.099 | 1.75 ± 0.16 | 2.78 ± 0.1
CKKNTKKCLKLAYENKI [POP4] | 2.77 ± 0.068 | 2.7 ± 0.076 | 2.87 ± 0.057 | 3.13 ± 0.067
QELGFCELLKLTNEDPP [SSN2] | 3 ± 0.12 | 3.12 ± 0.069 | 2.83 ± 0.1 | 3.02 ± 0.066
SQQLLEILVTELTAQGY [RPN2] | 1.65 ± 0.077 | 2.19 ± 0.079 | 1.93 ± 0.13 | 1.77 ± 0.066
FSFGQNNNNTNTQPSAS [YGR119C/NUP57] | 2.87 ± 0.071 | 2.61 ± 0.069 | 2.82 ± 0.06 | 2.78 ± 0.043
MANTGCLSPGAFLSKVP [SRP14] | 2.56 ± 0.076 | 2.3 ± 0.091 | 2.74 ± 0.14 | 2.52 ± 0.061
RLTVSARDAPTKISTLA [QCR2] | 3.2 ± 0.096 | 3.17 ± 0.069 | 3.04 ± 0.066 | 3.19 ± 0.055
PMDEETKLYFDVNEKIR [RPC25] | 3.01 ± 0.098 | 3.03 ± 0.086 | 3.01 ± 0.068 | 3.1 ± 0.1
DNWNAPLIMATCGSKGS [RPO31] | 2.57 ± 0.2 | 2.4 ± 0.11 | – | 2.43 ± 0.075
EDVTPVPSDSTRKKGGR [RPS14A] | 3.1 ± 0.13 | 3.24 ± 0.079 | 3.41 ± 0.065 | 3.45 ± 0.075
KRANNIRKFFGLSKEDD [RPS6A] | 3.39 ± 0.17 | 3.22 ± 0.11 | 2.98 ± 0.15 | 3.56 ± 0.11
ITNDWEQPCVDIISGKI [YJR042W/NUP85] | 3.36 ± 0.078 | 3.44 ± 0.066 | 3.18 ± 0.053 | 3.02 ± 0.058
MLSKTKVYYFQGGNNEL [RPL30] | 2.87 ± 0.15 | 3.17 ± 0.26 | 2.99 ± 0.14 | 3.4 ± 0.25
AEGQTNSISDFLGEQVN [RPN1] | 3.06 ± 0.079 | 2.89 ± 0.067 | 2.98 ± 0.077 | 3.12 ± 0.059
